In PMC7803729 (Nature Communications, 2021) one finds Kd data, which are given here for 1 molecule.

The test deals with SARS-CoV-2 S protein RBD (Arg319-Asn536) with a polyhistidine tag at the C-terminus, manufactured by Celltrion (SARS-CoV-2, Wuhan-Hu-1 (YP_009724390.1), UniProt P0DTC2). Put plainly: SPR. The settings on record: both partners purified.

B1: CT-P59 monoclonal antibody, full-length fully human IgG (antibody, V domains shown)
VH: QITLKESGPTLVKPTQTLTLTCSFSGFSLSTSGVGVGWIRQPPGKALEWLALIDWDDNKYHTTSLKTRLTISKDTSKNQVVLTMTNMDPVDTATYYCARIPGFLRYRNRYYYYGMDVWGQGTTVTVSS
VL: ELVLTQPPSVSAAPGQKVTISCSGSSSNIGNNYVSWYQQLPGTAPKLLIYDNNKRPSGIPDRFSGSKSGTSATLGITGLQTGDEADYYCGTWDSSLSAGVFGGGTELTVL
For orientation: Kd means the free concentration of one partner at which half of the binding sites on the other are occupied at equilibrium, for simple one-to-one binding. Higher therefore signals weaker binding. In the case of B1, the affinity, expressed as Kd, was 0.027 nM.
